Data taken from PMC11667159 (The Journal of Biological Chemistry, 2024).
Residue numbers refer to the chain shown, from its start. Numbers in names are those of the source.

T1: VC1 domain of human RAGE (receptor for advanced glycation end products), biotinylated (human, UniProt Q15109 23-226, biotin (EZ-Link Sulfo-NHS-Biotin))
T1 chain: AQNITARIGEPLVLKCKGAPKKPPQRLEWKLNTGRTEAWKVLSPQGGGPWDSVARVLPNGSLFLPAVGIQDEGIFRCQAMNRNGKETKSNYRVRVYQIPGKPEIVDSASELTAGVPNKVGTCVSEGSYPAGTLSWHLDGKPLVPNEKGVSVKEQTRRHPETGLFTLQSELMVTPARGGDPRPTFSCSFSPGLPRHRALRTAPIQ

B1: tetrameric S100B (human, recombinant) (natural protein)
chain: MSELEKAMVALIDVFHQYSGREGDKHKLKKSELKELINNELSHFLEEIKEQEVVDKVMETLDNDGDGECDFQEFMAFVAMVTTACHEFFEHE
notes: S100B, human, isolated as the tetramer (association of two homodimers); also called S100B-4mer; S100B tetramer; source: E. coli (BL21(DE3) E. Cloni EXPRESS), purified
B2: Nb6 (VHH)
VHH: QVQLVESGGGLVQAGGSLRLSCAASGNILRLNAMAWYRQAPGKQRELVAYITYKGPTNYAESVKGRFTISRDMAKNTVYLQMNSLKPEDTAAYYCNADYIRTPGPFWGQGTQVTVSS
B3: Nb7 (VHH)
VHH: B2 VHH with Y50D, I51N, Y53F, E61D, P105H
B4: Nb11 (VHH)
VHH: QVQLVESGGGLVQAGGSLRLSCAASASIGIFTVRWWRQAPGKQRALEQRELVAGISGGGTTNFADSVKGRFTISRDNDKKMVYLEMNNLKPEDTAVYYCNYLNSWGQGTQVTVSS
B5: Nb5 (VHH)
VHH: QVQLVESGGGLVQAGGSQRLSCTASGRIFSINDMGWYRQAPGDQRELVAVITSGGATNYTDSVKGRFTISRDDAKNTVYLQMNSLKPEDTAVYYCNADLRTSLKWPPVFHRYWGQGTQVTVSS
B6: Nb9 (VHH)
VHH: QVQLVESGGGLVQAGESLRLSCAASGAVFRIFAVNWWRQAPGKQRELVATITSAGDTKYHDSVKGRFTISRDNAKNTVALQMNNLKPEDTAVYQCNVLKYWGQGTQVTVSS
B7: Nb10 (VHH)
VHH: B6 VHH with N73I
B8: Nb3 (VHH)
VHH: QVQLVESGGGLVQAGRSLRLSCAASGRSFSIFAVNWWRQAPGNQRELVASITGGGSIRYADSVKGRFTISRDNAENTVYLQMNSLKPEDTAVYYCNTLNFWGQGTQVTVSS
B9: Nb4 (VHH)
VHH: B8 VHH with A33G, W37F, G42E, K64T, T97I
B10: Nb8 (VHH)
VHH: QVQLVESGGGLVQAGGSLRLACVTSGNIFSISFMRWYRQAPGKQRELVATITSGDRTTYADSVKGRFTISRDNAKNTVYLQMNSLEPEDTAVYYCDINGLRYAGIRSWGQGTQVTVSS
B11: Nb13 (VHH)
VHH: QVQLVESGGGLVQPGGSLMLSCAASGFDFATYPMSWVRQAPGKEPEWIASIFPNGVTQSCADSVLGRFTISRDNTKNTLFLEMDRLKLADTAVYYCSKGGAAQSMFDDYWGQGTQVTVSS
B12: Nb2 (VHH)
VHH: QVQLVESGGGWVQAGGSLRLSCTASGSGFGIFAINWFRQAPGKERELVASLSSIGSPKYAESVKGRFTISRDNAKNTVYLQMNSLKPEDTAVYYCNYLNRWGQGTQVTVSS
B13: Nb14 (VHH)
VHH: QVQLVESGGGLVQAGDSLRLSCAASARTFSIHAMGWFRQAPGKEREFVAAIGWTGGSPDYSDSAKGRFAISRDNAKNTVFLQMNSLKPEDTAVYYCAFHRAGSYDSTTSYDYWGQGTQVTVSS
B14: Nb25 (VHH)
VHH: QVQLVESGGGLVQPGGSLRLSCTVSGIILGSRAMGWYRQTPGKQREFVATISTSGGTTNYADSVKGRFTISRDNAKNTVYLQMNSLKPEDTAIYYCNTLSQVLADRGWGQGTQVTVSS
B15: Nb26 (VHH)
VHH: B14 VHH with Q13R, I28M, L29F, E46D, N74S, I93V, L99V, Q101A, A104L
B16: Nb16 (VHH)
VHH: QVQLVESGGGLVQAGGSLRLSCAASGRTVSSKAMGWYRQAPGKQRELVASISTSGSTTVYADSVKGRFTISRDNAKATVYLRMNMLKPEDTAVYYCNYLVGPIDWGQGTQVTVSS
B17: Nb17 (VHH)
VHH: B16 VHH with V59N, K76E, T78P, R82Q, E89G, I103A
B18: Nb22 (VHH)
VHH: QVQLVESGGGLVQPGGSLRLSCAASGTSFSTNVMGWYRQAPGKQRELVARILGGSSTYYADSVKGRFTISRDNDKNTLYLQMNSLKPEDTAVYYCTAGFGPGYWGQGTQVTVSS
B19: Nb23 (VHH)
VHH: B18 VHH with I51M, D74A, L78V, T96A
B20: Nb20 (VHH)
VHH: QVQLVESGGGLVQAGASLRLSCAASGRTFSSNYMGWFRQAPGKEREFVGAISWTSGSTSYADSVKGRFTISRDKAKNTVDLQMNSLNPDDTAVYYCAAGPSHRLWFSGRTLATYYDYWGQGTQVTVSS
B21: Nb28 (VHH)
VHH: QVQLVESGGGLVQTGGSLNLSCAPFGTVLSDNDVGWYRQAPGSQRELVAEVDVRGGTNYADSVKGRFTISRDSAKKITFLQMNSLKSEDTAVYYCASDYGLGLLVGLPEYRGQGTQVTVSS
B22: Nb21 (VHH)
VHH: QVQLVESGGGLVQAGDSLRLSCAASGRTFSNYGIGWFRQAPGKEREFVARVAWSTAITKYADAVKGRFTISRDNAKNMVYLQMNSLKPEDTAVYYCAAGKYGTAWITISGYDFWGQGTQVTVSS
B23: Nb19 (VHH)
VHH: QVQLVESGGGLVQAGGSLRLSCAASGRTFSSYKMGWFRQAPGKEREFVAAFSWTGLNTNYADSVKGRFTISRDNAKSTVYLQMNSLKPEDTAVYYCAAGLGRTVIAGVDYWGQGTQVTVSS
B24: Nb15 (VHH)
VHH: QVQLVESGGGLVQAGGSLRLSCVASGILFSNNPMAWYRGAPGKQRELVARIWSGGRTIYGDSLKGRVTISRDNAKNTVYLQMNSLQPEDTAVYYCNSPYTNGWGQGTQVTVSS
B25: Nb24 (VHH)
VHH: QVQLVESGGGLVQDGGSLRLSCAASGLTFSSLPMGWFRQAPGKEREFVAAMNWGEISTYYADSVKGRFTISRDNGKKTVYLQMNSLKPEDTAVYTCAADLRYSNLKYSRAGYWGQGTQVTVSS
B26: Nb27 (VHH)
VHH: QVQLVESGGGLVQAGGSLKLSCAAPGWTVSISYMGWFRQAQGKEREFVGAMSWSDDRISYADSVKGRFTISRDNAKTTVFLQMTSLKPEDTAVYYCAVRRKWSESYDYWGQGTQVTVSS
B27: dimeric S100B (human, recombinant) (natural protein)
chain: B1 chain

Biological target: T1, VC1 domain of human RAGE (receptor for …)
Assay: BLI; in the presence of twofold excess Nb18
Settings: not given

With B1 as the binder, how does the Kd read?
Its Kd is 0.07 µM.

Biological target: T1, VC1 domain of human RAGE (receptor for …)
Assay: BLI; in the presence of twofold excess Nb1
Settings: not given

How did the Kd turn out when B1 was run?
The Kd was 0.089 µM.

biological target: T2, VC1 domain of human RAGE (receptor for advanced glycation end products), biotinylated (human, UniProt Q15109 23-226, biotin (EZ-Link Sulfo-NHS-Biotin)); assay: BLI; biotinylated RAGE-VC1 (25 μg/ml) loaded on streptavidin biosensor; S100B tetramer 50-750 nM in solution (controls: Nbs alone); 25 °C; PBS, 0.1% BSA, 0.05% Tween-20, 1.1 mM CaCl2; global 1:1 fit; settings: both partners purified
T2 construct: RAGE, human, V and C1 immunoglobulin-like domains; also called RAGE-VC1; VC1 RAGE; source: E. coli Rosetta-gami B (DE3), purified

For B1, which Kd is on record?
The Kd was roughly 0.029 µM.

biological target: tetrameric S100B (human, recombinant) (human, UniProt P04271); assay: not given; settings: not given

Does B2 bind?
Result: binds

Does B3 bind?
Result: binds

Does B4 bind?
Result: binds

Does B5 bind?
Result: binds

Does B6 bind?
Result: binds

Does B7 bind?
Result: binds

Does B8 bind?
Result: binds

Does B9 bind?
Result: binds

Does B10 bind?
Result: binds

Does B11 bind?
Result: binds

Does B12 bind?
Result: binds

biological target: dimeric S100B (human, recombinant) (Homo sapiens, UniProt P04271); assay: not given; settings: not given

Does B13 bind?
Result: binds

Does B14 bind?
Result: binds

Does B15 bind?
Result: binds

Does B16 bind?
Result: binds

Does B17 bind?
Result: binds

Does B18 bind?
Result: binds

Does B19 bind?
Result: binds

Does B20 bind?
Result: binds

Does B21 bind?
Result: binds

Does B22 bind?
Result: binds

Does B23 bind?
Result: binds

Does B24 bind?
Result: binds

Does B25 bind?
Result: binds

Does B26 bind?
Result: binds

biological target: anti-S100B nanobody Nb12 (llama); assay: BLI; Nbs (20 μg/ml) loaded on Ni-NTA biosensor; S100B dimer or tetramer 25-250 nM in solution; 25 °C; 50 mM Tris-HCl pH 7.4, 150 mM NaCl; global 1:1 fit; settings: not given
Sequence (heavy, as listed by the source): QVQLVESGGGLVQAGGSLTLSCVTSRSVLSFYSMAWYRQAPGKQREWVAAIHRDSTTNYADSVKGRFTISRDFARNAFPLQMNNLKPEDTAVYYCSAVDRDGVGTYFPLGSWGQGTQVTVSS

Which Kd does the source give for B27 here?
Its Kd is 4 µM.

B1 was tested. Which Kd did it give?
The Kd was 0.8 µM.

biological target: T2, VC1 domain of human RAGE (receptor for …); assay: BLI; competition: biotinylated RAGE-VC1 on streptavidin biosensor; S100B tetramer 50-750 nM previously incubated with a twofold excess of Nb; 25 °C; PBS, 0.1% BSA, 0.05% Tween-20, 1.1 mM CaCl2; global 1:1 fit; settings: both partners purified

B1 was tested. Which “fold increase of KD after incubation with Nb1, against S100B-4mer alone” value did it give?
Its value is 3 fold.

What about the “fold increase of KD after incubation with Nb18, against S100B-4mer alone” value of the same binder?
The value was 2.4 fold.
